Drawing on publication PMC10786891, “Massively parallel profiling of RNA-targeting CRISPR-Cas13d”, this text covers Kd for 27 molecules.

T1: EsCas13d, nuclease-dead (Eubacterium siraeum, UniProt B0MS50, R295A;H300A;R849A;H854A)
T1 sequence: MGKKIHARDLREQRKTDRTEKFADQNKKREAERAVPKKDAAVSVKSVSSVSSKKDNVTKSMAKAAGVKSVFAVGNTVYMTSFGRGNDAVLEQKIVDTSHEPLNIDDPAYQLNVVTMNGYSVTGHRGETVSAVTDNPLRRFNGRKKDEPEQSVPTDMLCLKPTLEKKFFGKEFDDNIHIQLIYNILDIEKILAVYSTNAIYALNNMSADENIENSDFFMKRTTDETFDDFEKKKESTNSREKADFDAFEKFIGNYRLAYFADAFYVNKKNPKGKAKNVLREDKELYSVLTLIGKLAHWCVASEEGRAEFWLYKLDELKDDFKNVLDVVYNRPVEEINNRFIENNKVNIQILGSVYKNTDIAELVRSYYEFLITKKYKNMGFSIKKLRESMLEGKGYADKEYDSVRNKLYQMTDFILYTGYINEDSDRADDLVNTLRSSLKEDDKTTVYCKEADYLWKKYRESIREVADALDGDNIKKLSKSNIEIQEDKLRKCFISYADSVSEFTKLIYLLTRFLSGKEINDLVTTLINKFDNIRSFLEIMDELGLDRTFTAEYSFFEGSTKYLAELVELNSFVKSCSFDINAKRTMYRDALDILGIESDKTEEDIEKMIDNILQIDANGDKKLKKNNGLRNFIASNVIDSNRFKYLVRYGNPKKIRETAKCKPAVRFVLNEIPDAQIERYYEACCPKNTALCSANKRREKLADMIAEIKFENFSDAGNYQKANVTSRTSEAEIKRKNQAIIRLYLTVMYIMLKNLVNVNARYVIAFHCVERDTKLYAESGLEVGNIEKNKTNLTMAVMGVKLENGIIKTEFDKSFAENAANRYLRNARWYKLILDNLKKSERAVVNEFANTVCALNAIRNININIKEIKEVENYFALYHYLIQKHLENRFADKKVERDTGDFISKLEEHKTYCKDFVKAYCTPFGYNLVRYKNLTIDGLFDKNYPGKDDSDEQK

B1: target 1 C7U,A16C (mixed)
RNA 1: CACCCGUGCAAAAAUGCAGGGGUCUAAAACUGAGCGGAUAACCUCUCUAUGG
RNA 2: GGGAAUGGAUCCACAUCUACGAAUUCGUACCAUAGCGAGGUUAUUCGCUCACCGAGAUCGGAAGAGCACACGU
B2: target 1 insC 3' of 5,insG 3' of 2 (mixed)
RNA 1: B1 RNA 1
RNA 2: GGGAAUGGAUCCACAUCUACGAAUUCGUACCAUAGAGAGGUUAUCCGCCUCGACCGAGAUCGGAAGAGCACACGU
B3: target 1 U8A,A18G (mixed)
RNA 1: B1 RNA 1
RNA 2: B1 RNA 2 with A34G, C36A, U44A, U45C
B4: target 1 G12C,G15U (mixed)
RNA 1: B1 RNA 1
RNA 2: B1 RNA 2 with C36A, G37U, G40C, U45C
B5: target 1 insC 3' of 13,insG 3' of 8 (mixed)
RNA 1: B1 RNA 1
RNA 2: GGGAAUGGAUCCACAUCUACGAAUUCGUACCAUAGAGAGCGUUAUGCCGCUCACCGAGAUCGGAAGAGCACACGU
B6: target 1 insA 3' of 17,insA 3' of 10 (mixed)
RNA 1: B1 RNA 1
RNA 2: B5 RNA 2 with G37A, A38G, G39A, C40G, U45A, G46U
B7: target 1 C2U,A9C (mixed)
RNA 1: B1 RNA 1
RNA 2: B1 RNA 2 with C36A, A43C, U45C, C50U
B8: target 1 insG 3' of 22,insU 3' of 4 (mixed)
RNA 1: B1 RNA 1
RNA 2: GGGAAUGGAUCCACAUCUACGAAUUCGUACGCAUAGAGAGGUUAUCCGCUUCACCGAGAUCGGAAGAGCACACGU
B9: target 1 insA 3' of 21,insC 3' of 15 (mixed)
RNA 1: B1 RNA 1
RNA 2: GGGAAUGGAUCCACAUCUACGAAUUCGUACCAAUAGAGCAGGUUAUCCGCUCACCGAGAUCGGAAGAGCACACGU
B10: target 1 U3C,A14G (mixed)
RNA 1: B1 RNA 1
RNA 2: B1 RNA 2 with C36A, A38G, U45C, U49C
B11: target 1 insU 3' of 22,insG 3' of 19 (mixed)
RNA 1: B1 RNA 1
RNA 2: B9 RNA 2 with C31U, A32C, A35G, G36A, A37G, G38A, C39G
B12: target 1 insG 3' of 11,insU 3' of 2 (mixed)
RNA 1: B1 RNA 1
RNA 2: B2 RNA 2 with U42G, A43U, U44A, C45U, G47C, C48G, G52U
B13: target 1 insU 3' of 9 (mixed)
RNA 1: B1 RNA 1
RNA 2: GGGAAUGGAUCCACAUCUACGAAUUCGUACCAUAGAGAGGUUAUUCCGCUCACCGAGAUCGGAAGAGCACACGU
B14: target 1 insA 3' of 10 (mixed)
RNA 1: B1 RNA 1
RNA 2: B13 RNA 2 with U44A
B15: target 1 C6A,G12C (mixed)
RNA 1: B1 RNA 1
RNA 2: B1 RNA 2 with C36A, G40C, U45C, C46A
B16: target 1 insA 3' of 7,insU 3' of 2 (mixed)
RNA 1: B1 RNA 1
RNA 2: B2 RNA 2 with C46A, G47C, C48G, G52U
B17: target 1 G5C,U8G (mixed)
RNA 1: B1 RNA 1
RNA 2: B1 RNA 2 with C36A, U44G, U45C, G47C
B18: target 1 U8G,A9U (mixed)
RNA 1: B1 RNA 1
RNA 2: B1 RNA 2 with C36A, A43U, U44G, U45C
B19: target 1 insG 3' of 8,insG 3' of 3 (mixed)
RNA 1: B1 RNA 1
RNA 2: B2 RNA 2 with C45G, G47C, C48G, C51G, G52C
B20: target 1 insC 3' of 12,insA 3' of 4 (mixed)
RNA 1: B1 RNA 1
RNA 2: B5 RNA 2 with C40G, G41C, G46C, C48G, G49C, C50A
B21: target 1 A9G,U19A (mixed)
RNA 1: B1 RNA 1
RNA 2: B1 RNA 2 with U33A, C36A, A43G, U45C
B22: target 1 insA 3' of 22,insA 3' of 11 (mixed)
RNA 1: B1 RNA 1
RNA 2: B9 RNA 2 with C31A, A32C, C39A, A40G, G42U, U43A
B23: target 1 insU 3' of 18 (mixed)
RNA 1: B1 RNA 1
RNA 2: B13 RNA 2 with G35U, A36G, G37A, A38G, G39A, U41G, A43U, U44A
B24: target 1 insA 3' of 12,insA 3' of 6 (mixed)
RNA 1: B1 RNA 1
RNA 2: B5 RNA 2 with C40G, G41A, G46C, C48A
B25: target 1 U3G,U11G (mixed)
RNA 1: B1 RNA 1
RNA 2: B1 RNA 2 with C36A, U41G, U45C, U49G
B26: target 1 insC 3' of 22,insC 3' of 9 (mixed)
RNA 1: B1 RNA 1
RNA 2: B9 RNA 2 with A32C, C39A, A40G, G42U, U44A, A45C
B27: target 1 insG 3' of 10,insC 3' of 3 (mixed)
RNA 1: B1 RNA 1
RNA 2: B2 RNA 2 with A43G, U44A, C45U, G47C, C48G, G52C

Changes are numbered by the printed parent chain. Numbers in names are those of the source.

In the series the target is T1, EsCas13d, nuclease-dead. The series is described as follows: crRNA (strand 1, pre-loaded); Mg2+; 40 mM Tris-HCl pH 7.5, 150 mM NaCl, 6 mM MgCl2, 1 mM DTT, 0.1% Tween-20, 0.2 mg/ml BSA; 25 C; 10 min per concentration, then washed. To be noted: tags: His6-TwinStrep-SUMO cleaved; N-terminal SNAP kept (SNAP-Surface 488); label: 3' end held by stalled T7 RNA polymerase.
As to B1, binding was put at a Kd of 43 ± 4 nM.

As to B2, the affinity, expressed as Kd, was 10 ± 0.5 nM.

The molecule B3 yielded a Kd of 72 ± 16 nM.

Take B4: the equilibrium dissociation constant (Kd) is about 60 nM.

Turning to B5, the Kd came out at 13.9 ± 1.5 nM.

With B6, the Kd turned out to be 19.2 ± 1.7 nM.

B7 gave a Kd of 14.2 ± 0.5 nM.

On to B8, for which the Kd amounted to 32 ± 5 nM.

Take B9: binding was characterised by a dissociation constant (Kd) of 55 ± 11 nM.

On to B10, for which the equilibrium dissociation constant (Kd) is 57 ± 18 nM.

B11 registered a Kd of 86 ± 19 nM.

As to B12, binding was put at a Kd of 50 ± 9 nM.

On to B13, for which binding was characterised by a dissociation constant (Kd) of 13.1 ± 0.9 nM.

The molecule B14 returned a Kd of 12 ± 0.5 nM.

For the molecule B15, the Kd turned out to be 14.8 ± 0.5 nM.

Regarding B16, the Kd amounted to 7.5 ± 0.6 nM.

Molecule B17 yielded a Kd of 35 ± 4 nM.

Regarding B18, the Kd worked out at 11.4 ± 0.4 nM.

As to B19, binding was put at a Kd of 7.7 ± 0.4 nM.

B20 returned a Kd of 7 ± 0.7 nM.

The molecule B21 registered an equilibrium dissociation constant (Kd) of 44 ± 5 nM.

B22 had a Kd of 17.6 ± 1 nM.

In turn, B23 showed a Kd of 31 ± 3.2 nM.

As to B24, the equilibrium dissociation constant (Kd) was determined as 37.3 ± 3 nM.

As to B25, the affinity, expressed as Kd, was 11.7 ± 0.9 nM.

B26: the affinity, expressed as Kd, was 50 ± 13 nM.

The molecule B27 yielded a dissociation constant (Kd) of 26.7 ± 1.9 nM.

As a reminder, the Kd is the equilibrium constant for the complex coming apart. Low values mean higher affinity, high ones lower affinity.
